Experimental data as given in PMC5803496, “The catalytic inactivation of the N-half of human hexokinase 2 and structural and biochemical characterization of its mitochondrial conformation” (Bioscience Reports, 2018).

Target: the molecule itself
Test: crystal structure; sitting-drop vapor diffusion, 16% PEG 3350, 0.2 M sodium malonate, 0.1 M Bis-Tris propane pH 8.5, 10% ethylene glycol, 1 mM DTT, 18°C; in complex with glucose and G6P; the dimer is in the asymmetric unit

B1: Δ16 variant of the wild-type human hexokinase 2 (enzyme, UniProt P52789 17-917, looked up)
chain: DQVQKVDQYLYHMRLSDETLLEISKRFRKEMEKGLGATTHPTAAVKMLPTFVRSTPDGTEHGEFLALDLGGTNFRVLWVKVTDNGLQKVEMENQIYAIPEDIMRGSGTQLFDHIAECLANFMDKLQIKDKKLPLGFTFSFPCHQTKLDESFLVSWTKGFKSSGVEGRDVVALIRKAIQRRGDFDIDIVAVVNDTVGTMMTCGYDDHNCEIGLIVGTGSNACYMEEMRHIDMVEGDEGRMCINMEWGAFGDDGSLNDIRTEFDQEIDMGSLNPGKQLFEKMISGMYMGELVRLILVKMAKEELLFGGKLSPELLNTGRFETKDISDIEGEKDGIRKAREVLMRLGLDPTQEDCVATHRICQIVSTRSASLCAATLAAVLQRIKENKGEERLRSTIGVDGSVYKKHPHFAKRLHKTVRRLVPGCDVRFLRSEDGSGKGAAMVTAVAYRLADQHRARQKTLEHLQLSHDQLLEVKRRMKVEMERGLSKETHASAPVKMLPTYVCATPDGTEKGDFLALDLGGTNFRVLLVRVRNGKWGGVEMHNKIYAIPQEVMHGTGDELFDHIVQCIADFLEYMGMKGVSLPLGFTFSFPCQQNSLDESILLKWTKGFKASGCEGEDVVTLLKEAIHRREEFDLDVVAVVNDTVGTMMTCGFEDPHCEVGLIVGTGSNACYMEEMRNVELVEGEEGRMCVNMEWGAFGDNGCLDDFRTEFDVAVDELSLNPGKQRFEKMISGMYLGEIVRNILIDFTKRGLLFRGRISERLKTRGIFETKFLSQIESDCLALLQVRAILQHLGLESTCDDSIIVKEVCTVVARRAAQLCGAGMAAVVDRIRENRGLDALKVTVGVDGTLYKLHPHFAKVMHETVKDLAPKCDVSFLQSEDGSGKGAALITAVACRIREAGQR
notes: wild type; Crystallised in complex with glucose and glucose-6-phosphate; also called Δ16-HK2; HK2; source: E. coli, Champion pET SUMO expression system, purified (nickel-chelating resin, Superdex 200)
- binding result: binds
